Source: patent US8748480B2, “Methods for treating opioid tolerance” (priority 2005, dated 2014)

What was measured:
Type in all cases: binding
Gβ1γ2 Arg314Ala = target: T1, Gβ1γ2 Arg314Ala (Rattus norvegicus, UniProt P54311, R314A); test: Phage ELISA, b-βγ mutant Arg314Ala; settings: alanine-substituted Arg314, Indirect; mean ± SD
T1 construct: made in house; host or cells: Sf9 insect cells (baculovirus)
Description: (§1) Wild-type Gβ1 and Gβ1 mutants were made in the baculovirus vector PDW464 which encodes a biotinylation site at a lysine upstream of the amino terminus of Gβ1 (Goubaeva, et al. (2003) supra). Mutants were generated by overlap extension PCR using standard protocols. The wild-type and mutant Gβ1 constructs consisted of a 20 amino acid biotin acceptor peptide (BAP) sequence fused in-frame with the amino-terminus of rat Gβ1 subunit. When coexpressed with biotin holoenzyme synthetase (BirA) in Sf9 cells, the Gβ1 subunit becomes covalently biotinylated in vivo at the Specific lysine acceptor residue in the BAP. Using this approach, 1-2 mg protein of purified protein can be obtained per liter of Sf9 insect cells. As 45 ng of protein is used in the phage ELISA assay, a single purification is sufficient for 10,000 to 30,000 binding assays.
(§2) Phage ELISA assays used to assess peptide binding to wild-type and mutant b-βγ were performed according to standard methods (Smrcka and Scott (2002) Methods Enzymol. 344:557-76). Briefly, 1 μg streptavidin was immobilized in the well of a […] overnight at 4° C. The wells were blocked with 100 μL of 2% bovine serum albumin (BSA) in Tris-buffered saline (TBS) for 1 hour at 4° C. followed by three washes of 1×TBS/0.5% TWEEN®. Forty μL of 25 nM bGβ1γ2 in TBS/0.5% TWEEN® was added to each well and incubated at 4° C. for 1.5 hour. The wells were washed, followed by the addition of 1×10^6 to 1×10^10 phage particles and incubated at 4° C. for 3 hours. The wells were then washed six times with TBS/0.5% TWEEN® followed by addition of 40 μL of 1:5000 dilution of anti-M13 antibody (Pharmacia, Uppsala, Sweden) and incubated at room temperature for 1 hour. The wells were washed, followed by the addition of 40 μL of (2,2′-Azino-bis(3-ethylbenzthiazoline)-6-sulfonic acid (ABTS) and the colorimetric reaction was monitored at 405 nm. Non-specific binding was subtracted for each reading.
(§3) Both assays were then carried out with Gβ1γ2 heterodimers containing mutations in the Gβ1 subunit.
(§4) The nine peptides were selected to represent the different consensus groups of peptides previously identified (See Scott et al. (2001) supra; Table 9) and to compare binding characteristics within and between consensus groups. […] As disclosed herein, the binding signal obtained in the ELISA assay was correlated to a loss in affinity by comparing the results to behavior of the peptide in a solution based assay. […] For the purposes of present disclosure, any substitution that decreased the binding to less than 20% of the wild-type binding was considered to be a critical binding contact for that peptide.

Gβ1γ2 Trp332Ala = target: T2, Gβ1γ2 Trp332Ala (Rattus norvegicus, UniProt P54311, W332A); test: Phage ELISA, b-βγ mutant Trp332Ala; settings: alanine-substituted Trp332, C-Terminal Interface; mean ± SD
T2 construct: made in house; host or cells: Sf9 insect cells (baculovirus)
Description: as §1, §2, §3, §4

Gβ1γ2 His311Ala = target: T3, Gβ1γ2 His311Ala (Rattus norvegicus, UniProt P54311, H311A); test: Phage ELISA, b-βγ mutant His311Ala; settings: alanine-substituted His311, Indirect; mean ± SD
T3 construct: made in house; host or cells: Sf9 insect cells (baculovirus)
Description: as §1, §2, §3, §4

Gβ1γ2 Met101Ala = target: T4, Gβ1γ2 Met101Ala (Rattus norvegicus, UniProt P54311, M101A); test: Phage ELISA, b-βγ mutant Met101Ala; settings: alanine-substituted Met101, C-Terminal Interface; mean ± SD
T4 construct: made in house; host or cells: Sf9 insect cells (baculovirus)
Description: as §1, §2, §3, §4

Gβ1γ2 Trp99Ala = target: T5, Gβ1γ2 Trp99Ala (Rattus norvegicus, UniProt P54311, W99A); test: Phage ELISA, b-βγ mutant Trp99Ala; settings: alanine-substituted Trp99, C-Terminal Interface; mean ± SD
T5 construct: made in house; host or cells: Sf9 insect cells (baculovirus)
Description: as §1, §2, §3, §4

Gβ1γ2 Met188Ala = target: T6, Gβ1γ2 Met188Ala (Rattus norvegicus, UniProt P54311, M188A); test: Phage ELISA, b-βγ mutant Met188Ala; settings: alanine-substituted Met188, Shared; mean ± SD
T6 construct: made in house; host or cells: Sf9 insect cells (baculovirus)
Description: as §1, §2, §3, §4

Gβ1γ2 Asp186Ala = target: T7, Gβ1γ2 Asp186Ala (Rattus norvegicus, UniProt P54311, D186A); test: Phage ELISA, b-βγ mutant Asp186Ala; settings: alanine-substituted Asp186, N-Terminal Interface; mean ± SD
T7 construct: made in house; host or cells: Sf9 insect cells (baculovirus)
Description: as §1, §2, §3, §4

Gβ1γ2 Asp246Ser = target: T8, Gβ1γ2 Asp246Ser (Rattus norvegicus, UniProt P54311, D246S); test: Phage ELISA, b-βγ mutant Asp246Ser; settings: Asp246 mutant (Asp246Ser), N-Terminal Interface; mean ± SD
T8 construct: made in house; host or cells: Sf9 insect cells (baculovirus)
Description: as §1, §2, §3, §4

Gβ1γ2 Leu117Ala = target: T9, Gβ1γ2 Leu117Ala (Rattus norvegicus, UniProt P54311, L117A); test: Phage ELISA, b-βγ mutant Leu117Ala; settings: alanine-substituted Leu117, C-Terminal Interface; mean ± SD
T9 construct: made in house; host or cells: Sf9 insect cells (baculovirus)
Description: as §1, §2, §3, §4

Gβ1γ2 Lys57Ala = target: T10, Gβ1γ2 Lys57Ala (Rattus norvegicus, UniProt P54311, K57A); test: Phage ELISA, b-βγ mutant Lys57Ala; settings: alanine-substituted Lys57, C-Terminal Interface; mean ± SD
T10 construct: made in house; host or cells: Sf9 insect cells (baculovirus)
Description: as §1, §2, §3, §4

Gβ1γ2 Tyr59Ala = target: T11, Gβ1γ2 Tyr59Ala (Rattus norvegicus, UniProt P54311, Y59A); test: Phage ELISA, b-βγ mutant Tyr59Ala; settings: alanine-substituted Tyr59, C-Terminal Interface; mean ± SD
T11 construct: made in house; host or cells: Sf9 insect cells (baculovirus)
Description: as §1, with “BAP.” for “BAP. Using this approach, 1-2 mg protein of purified protein can be obtained per liter of Sf9 insect cells. As 45 ng of protein is used in the phage ELISA assay, a single purification is sufficient for 10,000 to 30,000 binding assays.”
as §2, with “Forty μL of 25 nM bGβ1γ2 in TBS/0.5% TWEEN® was added to each well and incubated at 4° C. for 1.5 hour.” left out
as §3
The nine peptides were selected to represent the different consensus groups of peptides previously identified (See Scott et al. (2001) supra; Table 9) and to compare binding characteristics within and between consensus groups. […] For the purposes of present disclosure, any substitution that decreased the binding to less than 20% of the wild-type binding was considered to be a critical binding contact for that peptide.

Gβ1γ2 Asn230Ala = target: T12, Gβ1γ2 Asn230Ala (Rattus norvegicus, UniProt P54311, N230A); test: Phage ELISA, b-βγ mutant Asn230Ala; settings: alanine-substituted Asn230, N-Terminal Interface; mean ± SD
T12 construct: made in house; host or cells: Sf9 insect cells (baculovirus)
Description: as §1, §2, §3, §4

Gβ1γ2 Tyr145Ala = target: T13, Gβ1γ2 Tyr145Ala (Rattus norvegicus, UniProt P54311, Y145A); test: Phage ELISA, b-βγ mutant Tyr145Ala; settings: alanine-substituted Tyr145, N-Terminal Interface; mean ± SD
T13 construct: made in house; host or cells: Sf9 insect cells (baculovirus)
Description: as §1, §2, §3, §4

T2 sequence (P54311 whole entry W332A): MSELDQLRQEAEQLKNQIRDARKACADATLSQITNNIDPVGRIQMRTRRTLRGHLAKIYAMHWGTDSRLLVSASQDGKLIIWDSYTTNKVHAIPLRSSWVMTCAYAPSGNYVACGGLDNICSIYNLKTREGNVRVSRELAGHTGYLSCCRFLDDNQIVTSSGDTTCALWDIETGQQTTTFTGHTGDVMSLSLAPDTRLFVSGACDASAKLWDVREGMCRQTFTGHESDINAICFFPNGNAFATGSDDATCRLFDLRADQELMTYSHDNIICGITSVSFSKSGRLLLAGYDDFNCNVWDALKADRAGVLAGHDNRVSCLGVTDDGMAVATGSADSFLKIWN
T2 sequence (P63212 2-68 partner limits assumed): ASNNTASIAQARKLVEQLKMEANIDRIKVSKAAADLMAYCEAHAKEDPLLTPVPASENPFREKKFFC
T4 sequence (P54311 whole entry M101A): as the sequence (P54311 whole entry W332A) above, with M101A, A332W counted along it
T4 sequence (P63212 2-68 partner limits assumed): as the sequence (P63212 2-68 partner limits assumed) above
T10 sequence (P54311 whole entry K57A): as the sequence (P54311 whole entry W332A) above, with K57A, A332W counted along it
T10 sequence (P63212 2-68 partner limits assumed): as the sequence (P63212 2-68 partner limits assumed) above
T8 sequence (P54311 whole entry D246S): as the sequence (P54311 whole entry W332A) above, with D246S, A332W counted along it
T8 sequence (P63212 2-68 partner limits assumed): as the sequence (P63212 2-68 partner limits assumed) above
T12 sequence (P54311 whole entry N230A): as the sequence (P54311 whole entry W332A) above, with N230A, A332W counted along it
T12 sequence (P63212 2-68 partner limits assumed): as the sequence (P63212 2-68 partner limits assumed) above
T11 sequence (P54311 whole entry Y59A): as the sequence (P54311 whole entry W332A) above, with Y59A, A332W counted along it
T11 sequence (P63212 2-68 partner limits assumed): as the sequence (P63212 2-68 partner limits assumed) above
T13 sequence (P54311 whole entry Y145A): as the sequence (P54311 whole entry W332A) above, with Y145A, A332W counted along it
T13 sequence (P63212 2-68 partner limits assumed): as the sequence (P63212 2-68 partner limits assumed) above
T9 sequence (P54311 whole entry L117A): as the sequence (P54311 whole entry W332A) above, with L117A, A332W counted along it
T9 sequence (P63212 2-68 partner limits assumed): as the sequence (P63212 2-68 partner limits assumed) above
T6 sequence (P54311 whole entry M188A): as the sequence (P54311 whole entry W332A) above, with M188A, A332W counted along it
T6 sequence (P63212 2-68 partner limits assumed): as the sequence (P63212 2-68 partner limits assumed) above
T1 sequence (P54311 whole entry R314A): as the sequence (P54311 whole entry W332A) above, with R314A, A332W counted along it
T1 sequence (P63212 2-68 partner limits assumed): as the sequence (P63212 2-68 partner limits assumed) above
T5 sequence (P54311 whole entry W99A): as the sequence (P54311 whole entry W332A) above, with W99A, A332W counted along it
T5 sequence (P63212 2-68 partner limits assumed): as the sequence (P63212 2-68 partner limits assumed) above
T7 sequence (P54311 whole entry D186A): as the sequence (P54311 whole entry W332A) above, with D186A, A332W counted along it
T7 sequence (P63212 2-68 partner limits assumed): as the sequence (P63212 2-68 partner limits assumed) above
T3 sequence (P54311 whole entry H311A): as the sequence (P54311 whole entry W332A) above, with H311A, A332W counted along it
T3 sequence (P63212 2-68 partner limits assumed): as the sequence (P63212 2-68 partner limits assumed) above

Sequence	% of Wild-Type Signal, Arg314 (Gβ1γ2 Arg314Ala)	% of Wild-Type Signal, Trp332 (Gβ1γ2 Trp332Ala)	% of Wild-Type Signal, His311 (Gβ1γ2 His311Ala)	% of Wild-Type Signal, Met101 (Gβ1γ2 Met101Ala)	% of Wild-Type Signal, Trp99 (Gβ1γ2 Trp99Ala)	% of Wild-Type Signal, Met188 (Gβ1γ2 Met188Ala)	% of Wild-Type Signal, Asp186 (Gβ1γ2 Asp186Ala)	% of Wild-Type Signal, Asp246 (Gβ1γ2 Asp246Ser)	% of Wild-Type Signal, Leu117 (Gβ1γ2 Leu117Ala)	% of Wild-Type Signal, Lys57 (Gβ1γ2 Lys57Ala)	% of Wild-Type Signal, Tyr59 (Gβ1γ2 Tyr59Ala)	% of Wild-Type Signal, Asn230 (Gβ1γ2 Asn230Ala)	% of Wild-Type Signal, Tyr145 (Gβ1γ2 Tyr145Ala)
LCSKAYLLLGQTC [2F]	2.4 ± 3.9%	−1.5 ± 3.6%	23.6 ± 46.0%	6.0 ± 5.1%	32.6 ± 26.3%	8.5 ± 5.2%	2.4 ± 3.5%	0.6 ± 2.5%	2.1 ± 5.5%	−4.5 ± 6.2%	−2.0 ± 9.5%	27.6 ± 19.1%	0.1 ± 6.5%
SCEKRLGVRSCT [C5]	76.5 ± 6.7%	3.2 ± 3.7%	58.7 ± 14.4%	47.8 ± 18.9%	39.0 ± 3.8%	97.2 ± 14.2%	45.7 ± 5.2%	56.3 ± 4.1%	28.5 ± 5.2%	5.6 ± 5.3%	73.8 ± 16.6%	33.5 ± 7.2%	16.7 ± 4.8%
SCEKRYGIEFCT [C4]	1.4 ± 1.0%	1.7 ± 3.0%	36.5 ± 8.3%	61.2 ± 30.9%	67.0 ± 15.2%	127.5 ± 22.4%	51.3 ± 15.0%	35.8 ± 7.4%	18.4 ± 7.1%	−0.2 ± 1.9%	7.6 ± 9.6%	11.5 ± 6.0%	4.4 ± 3.8%
SCGHGLKVQSTIGACA [3C]	8.3 ± 3.6%	−0.3 ± 1.7%	30.5 ± 18.9%	−4.2 ± 5.5%	−0.5 ± 5.9%	−5.7 ± 5.6%	35.0 ± 17.2%	2.0 ± 2.7%	10 ± 13.3%	3.6 ± 7.5%	8.5 ± 6.4%	4.1 ± 4.4%	2.7 ± 10.5%
SCKRTKAQILLAPCT [C1]	2.8 ± 1.6%	−0.3 ± 2.5%	3.0 ± 4.0%	70.5 ± 35.3%	1.2 ± 2.7%	4.0 ± 3.4%	1.4 ± 1.7%	2.3 ± 3.0%	5.2 ± 3.1%	0.1 ± 1.6%	0.3 ± 0.7%	19.8 ± 12.3%	88.0 ± 29.9%
SIGKALFILGYPDYD [3.14]	50.2 ± 5.0%	7.1 ± 3.7%	93.4 ± 21.5%	26.8 ± 12.5%	66.0 ± 7.7%	2.5 ± 3.7%	14.4 ± 13.4%	66.5 ± 7.5%	2.1 ± 2.4%	18.6 ± 4.6%	24.7 ± 15.2%	22.4 ± 4.2%	0.8 ± 0.9%
WCPPKAMTQLGIKAC [C14]	3.9 ± 7.9%	1.6 ± 2.4%	6.1 ± 3.4%	1.1 ± 4.9%	10.1 ± 3.3%	9.9 ± 3.8%	3.6 ± 1.9%	6.3 ± 13.9%	3.8 ± 9.2%	3.0 ± 5.0%	3.6 ± 2.0%	60.0 ± 26.5%	1.9 ± 5.9%
WCPPKLEQWYDGCA [C2]	1.3 ± 3.1%	4.7 ± 6.2%	11.7 ± 8.0%	157.1 ± 51.5%	−1.0 ± 5.1%	−0.7 ± 2.5%	267.2 ± 40.6%	5.9 ± 5.7%	1.5 ± 5.5%	−1.2 ± 4.5%	−1.7 ± 4.8%	0.0 ± 3.3%	4.5 ± 8.1%
